This assay concerns the target biotinylated wildtype K-Ras·GppNHp (His-Avi-TEV-KRAS (wildtype)). The assay is described as follows: TR-FRET K-Ras(wildtype) + Raf1-RBD. The note with it: chains peptide; modification not given; biotin on the Avi tag (co-expressed BirA).

Ends that are not written are not given here. Some results are limits rather than exact numbers.

As a reminder, the IC50 is the concentration at which inhibition is half-maximal.

Consider YFVNFRNFRTFRCG (also: cyclic, ring closure not given here) [KD2], for which the IC50 is > 100 µM.

Source of the values: patent US20230242586A1, “RAS INHIBITORS AND USES THEREOF” (The Regents of the University of California, priority 2020, published 2023).
